US20250206841A1 (ADEPT THERAPEUTICS, published 2025)
Changes are numbered by the printed parent chain.

B1: 2H5 (antibody, V domains shown)
VH: QSLEESGGDLVQPGASLTLTCKASGFDLNNYSILWVRQAPGKGLEWIGCIYFSGGSTYYANWAKGRFAISKTSSTTVTLQMTSLTAADTATYFCARDDGTTSYYLNLWGPGTLVTVSS
VL: YDMTQTPASVSEPVGGTVTIKCQASEDIYNLLAWYQQKPGQPPKLLIYAASDLESGVPSRFKGSGSGTEYTLTISDLECADAATYYCQQAYTVGNIDNAFGGGTEVVVK
notes: Rabbit-derived clone; LEM construct: VH + rabbit IgG CH1 + human IgG1 CH2-CH3
B2: 10D3 (antibody, V domains shown)
VH: B1 VH with S24A, I33M, F52I, S56T, N61S, A68T, T100S
VL: B1 VL with N30R, A49D, E54A, D76G, E78Q, A90G, V93I, A99S
notes: as for B1
B3: 10E12 (antibody, V domains shown)
VH: B1 VH with S32A, I33M, F52I, S56T, Y59F, N61S, K64T
VL: B1 VL with E12A, P13A, N30S, A49D, E54A, A80D, V93I
notes: as for B1
B4: 10F12 (antibody, V domains shown)
VH: B1 VH with K22R, I33M, F52I, S56T, Y59F, N61S, K64T, T100S
VL: B1 VL with E12A, P13A, N30S, Y48F, A49D, E54A, A80D, V93I
notes: as for B1
B5: 8H2 (antibody, V domains shown)
VH: B1 VH with S32A, I33M, F52I, S56T, Y59F, N61S, K64T, T100S
VL: B1 VL with E12A, P13A, N30S, A49D, E54A, D76A, A80D, V93I, A99T
notes: as for B1
B6: 12G6 (antibody, V domains shown)
VH: QEQLKESGGGLVQPGGSLTLSCKASGFDFNNYGVSWVRQAPGKGLEWIGYIYPAYHNTYYATWVNGRFTISSHNAQNTLYLQLNTLTAADTATYFCARDAGNTDYNFNLWGPGTLVTVSS
VL: DVVMTQTPASVEVAVGGTVTIKCQASEDIESYLAWYQQKPGQPPKLLIYEASKLASGVSSRFSGGGYGTEFTLTISGVECADAATYYCQQALTIGNVDNPFGGGSEVVVK
notes: as for B1
B7: 3A4 (antibody, V domains shown)
VH: B6 VH with K5V, A24G, N31E, G49A, Y55F, N84H, N102T
VL: B6 VL with E12S, V13A, T20S, K22N, S31N, G65S
notes: as for B1
B8: 69H10 (antibody, V domains shown)
VH: B6 VH with T19K, N31K, G49A, Y55F, N102T
VL: DVVMTQTASPVSAAVGGTVTIKCQASQSIYSYLSWYQQKPGQPPKLLIYEASKLASGVSSRFSGSGYGTEFTLTISGVECADAATYYCQQALTVGNVDNPFGGGSEVVVK
notes: as for B1
B9: 3E9 (antibody, V domains shown)
VH: B6 VH with T19K, G49A, Y55F, T58R, T62N, H73D, L79V, T85S, N102S, N106K
VL: B6 VL with E12S, V13A, E50D, K53T, G65S, A91D, I94V, K110E
notes: as for B1
B10: 2H3 (antibody, V domains shown)
VH: B6 VH with V12G, A100T, N102T
VL: B6 VL with I94V
notes: as for B1
B11: 9A5 (antibody, V domains shown)
VH: B6 VH with G49A, A54T, N102G
VL: B6 VL with V13A, K22N, E27Q, D28S
notes: as for B1
B12: 62A10 (antibody, V domains shown)
VH: QSLVESGGGLVQPEGSLTLTCKASGFDFNNYAVTWVRQAPGEGLEYIGFIGIRGHIYYANWAKGRFTISKTSSTTMTLQMTSLTVADTATYFCARGGLWTGNSYFDLWGPGTLVTVSS
VL: YDMTQTPASVEVAVGGTVTINCQASESISRYLAWYQQKPGQSPKPLIYRASTLASGVPSRFQGSGSGTEYTLTISDLECADAATYYCQQGYGYSTVDNAFGGGTEVVVK
notes: as for B1
B13: 71F10 (antibody, V domains shown)
VH: QSLEESGGGLVQPGASLTLTCTVSGFDFSSNAMTWVRQAPGEGLEYIGFIGIRGNIYYANWAKGRFTISKTSSTTVTLQMTSLTVADTATYFCARGGLWTGNSYFDLWGPGTLVTVSS
VL: B12 VL with E11S, V12A, S42P, Q62K, S66T, E69D, D97G
notes: as for B1
B14: 70E2 (antibody, V domains shown)
VH: B13 VH with Q12K, A15G, S16T, S30N, N31Y, E42K
VL: B12 VL with A13P, S27N, S29N, S42P, S51A, Q62K, T73S, D97G
notes: as for B1
B15: 73C2 (antibody, V domains shown)
VH: QSLEESGGGLVKPGGTLTLTCTVSGFDFSNYAVTWVRQAPGEGLEYIGFVGIYGDFYYANWAKGRFTISKTSSTTVTLQMPSLTVADTATYFCARGGLWTGNSYFDLWGPGTLVTVSS
VL: B12 VL with S29N, P39R, S42P, S51A, Q62K, D97G
notes: as for B1

biological target: T1, human Trop-2-His protein (human, UniProt P09758 27-274); test: BLI (Gator Prime), LEM supernatant Ab on HFC probe
T1 construct: extracellular domain; Assay paragraphs say only 'Trop-2-His'; also called hTrop-2; Kactus Cat #TRP-HM121; not shown: His tag
T1 sequence (looked up): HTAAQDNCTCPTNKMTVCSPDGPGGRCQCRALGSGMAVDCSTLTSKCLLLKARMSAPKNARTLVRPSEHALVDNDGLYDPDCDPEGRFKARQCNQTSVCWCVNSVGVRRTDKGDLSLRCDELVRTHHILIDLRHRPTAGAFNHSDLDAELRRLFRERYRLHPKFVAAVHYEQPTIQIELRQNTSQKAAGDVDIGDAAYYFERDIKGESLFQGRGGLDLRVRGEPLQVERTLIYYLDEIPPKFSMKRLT
Procedure: (§1) After three times of regeneration and neutralization of HFC probe (Gator, Cat #160003), LEM transfection supernatant samples to be tested in K buffer was diluted 1:1 in K buffer and immobilized onto HFC probe. […] The association and dissociation of human or cynomolgus Trop-2-His antigen from antibody was measured on BLI machine Gator Prime. Affinity was calculated using Gator Bio analysis software. Blank control was used for reference subtraction. 1 μg/ml of Sacituzumab govitecan was used as positive control.
(§2) Table 23 below summarizes the binding affinity of exemplary anti-Trop-2 antibodies in LEM transfection supernatant samples to human and cynomolgus Trop-2 using Gator.

B1 and B2 are within 1.5-fold of each other in Kd: 0.822 nM for the first, 0.562 nM for the second.

B3 and B4 are the same in Kd: 0.173 nM for the first, 0.173 nM for the second.

Compared with B5, B6 is 5.4-fold higher in Kd: 0.227 nM for the first, 1.22 nM for the second. The first binds more tightly here.

B7 and B8 are within 1.5-fold of each other in Kd: 1.38 nM for the first, 0.989 nM for the second.

First: B9
Second: B10
The Kd of the first is 2.5-fold higher: 0.675 nM for the first, 0.269 nM for the second.

B11 and B12 are within 1.5-fold of each other in Kd: 0.767 nM for the first, 0.959 nM for the second.

B13 and B14 are within 1.5-fold of each other in Kd: 0.696 nM for the first, 0.871 nM for the second.

In the case of B15, the Kd is reported as 3.85 nM.

B1 and B2 are within 1.5-fold of each other in koff: 0.00027 s⁻¹ for the first, 0.00019 s⁻¹ for the second.

B3 and B4 are the same in koff: 6.8e-05 s⁻¹ for the first, 6.8e-05 s⁻¹ for the second.

Going from B5 to B6, the koff rises from 9.6e-05 s⁻¹ to 0.00047 s⁻¹ (4.9-fold).

B7 and B8 are within 1.5-fold of each other in koff: 0.00069 s⁻¹ for the first, 0.00046 s⁻¹ for the second.

Compared with B9, B10 is 2.9-fold lower in koff: 0.00038 s⁻¹ for the first, 0.00013 s⁻¹ for the second.

B11 and B12 are within 1.5-fold of each other in koff: 0.00041 s⁻¹ for the first, 0.00051 s⁻¹ for the second.

B13 and B14 are within 1.5-fold of each other in koff: 0.00032 s⁻¹ for the first, 0.00038 s⁻¹ for the second.

In the case of B15, the koff is reported as 0.0011 s⁻¹.

B1 and B2 are within 1.5-fold of each other in kon: 331000 M⁻¹ s⁻¹ for the first, 339000 M⁻¹ s⁻¹ for the second.

B3 and B4 are the same in kon: 391000 M⁻¹ s⁻¹ for the first, 391000 M⁻¹ s⁻¹ for the second.

B5 and B6 are within 1.5-fold of each other in kon: 423000 M⁻¹ s⁻¹ for the first, 386000 M⁻¹ s⁻¹ for the second.

B7 and B8 are within 1.5-fold of each other in kon: 500000 M⁻¹ s⁻¹ for the first, 465000 M⁻¹ s⁻¹ for the second.

B9 and B10 are within 1.5-fold of each other in kon: 568000 M⁻¹ s⁻¹ for the first, 488000 M⁻¹ s⁻¹ for the second.

B11 and B12 are within 1.5-fold of each other in kon: 529000 M⁻¹ s⁻¹ for the first, 532000 M⁻¹ s⁻¹ for the second.

B13 and B14 are within 1.5-fold of each other in kon: 459000 M⁻¹ s⁻¹ for the first, 430000 M⁻¹ s⁻¹ for the second.

For B15, the kon was 284000 M⁻¹ s⁻¹.

Biological target: T2, cynomolgus Trop-2-His protein (cynomolgus, UniProt P09758 27-274 (human entry))
T2 construct: also called cynmolgus Trop-His; Kactus Cat #TRP-CM121; not shown: His tag
T2 chain: T1 sequence (looked up) with M36V, S67N, G139S, I204V
Test: BLI (Gator Prime), LEM supernatant Ab on HFC probe
Procedure: as §1, §2

B1 and B2 are within 1.5-fold of each other in Kd: 0.582 nM for the first, 0.455 nM for the second.

First: B3
Second: B4
The Kd of the first is higher: 0.168 nM for the first, ≤ 0.132 nM for the second. The second binds more tightly here.

Compared with B5, B6 is 4.1-fold higher in Kd: 0.221 nM for the first, 0.911 nM for the second.

B7 and B8 are within 1.5-fold of each other in Kd: 1.17 nM for the first, 0.893 nM for the second.

Compared with B9, B10 is 4.8-fold lower in Kd: 0.538 nM for the first, 0.113 nM for the second.

Compared with B11, B12 is 1.8-fold higher in Kd: 0.698 nM for the first, 1.27 nM for the second. The first binds more tightly here.

B13 and B14 are within 1.5-fold of each other in Kd: 0.755 nM for the first, 0.892 nM for the second.

In the case of B15, the Kd is reported as 4.63 nM.

B1 and B2 are within 1.5-fold of each other in koff: 0.00027 s⁻¹ for the first, 0.00019 s⁻¹ for the second.

B3 and B4 are within 1.5-fold of each other in koff: 6.8e-05 s⁻¹ for the first, ~5.62e-05 s⁻¹ for the second.

Compared with B5, B6 is 4.9-fold higher in koff: 9.6e-05 s⁻¹ for the first, 0.00047 s⁻¹ for the second.

B7 and B8 are within 1.5-fold of each other in koff: 0.00069 s⁻¹ for the first, 0.00053 s⁻¹ for the second.

Going from B9 to B10, the koff falls from 0.00038 s⁻¹ to 0.00013 s⁻¹ (2.9-fold).

First: B11
Second: B12
The koff of the first is 2.2-fold lower: 0.00041 s⁻¹ for the first, 0.00092 s⁻¹ for the second.

B13 and B14 are within 1.5-fold of each other in koff: 0.00054 s⁻¹ for the first, 0.00059 s⁻¹ for the second.

In the case of B15, the koff is reported as 0.0017 s⁻¹.

B1 and B2 are within 1.5-fold of each other in kon: 460000 M⁻¹ s⁻¹ for the first, 454000 M⁻¹ s⁻¹ for the second.

B3 and B4 are within 1.5-fold of each other in kon: 605000 M⁻¹ s⁻¹ for the first, 426000 M⁻¹ s⁻¹ for the second.

B5 and B6 are within 1.5-fold of each other in kon: 677000 M⁻¹ s⁻¹ for the first, 603000 M⁻¹ s⁻¹ for the second.

B7 and B8 are within 1.5-fold of each other in kon: 729000 M⁻¹ s⁻¹ for the first, 592000 M⁻¹ s⁻¹ for the second.

B9 and B10 are within 1.5-fold of each other in kon: 888000 M⁻¹ s⁻¹ for the first, 727000 M⁻¹ s⁻¹ for the second.

B11 and B12 are within 1.5-fold of each other in kon: 919000 M⁻¹ s⁻¹ for the first, 726000 M⁻¹ s⁻¹ for the second.

B13 and B14 are within 1.5-fold of each other in kon: 721000 M⁻¹ s⁻¹ for the first, 657000 M⁻¹ s⁻¹ for the second.

B15 showed a kon of 364000 M⁻¹ s⁻¹.
